Patent US20240041994A1, “CMV VACCINE AND METHOD OF MAKING AND USING THE SAME” (priority 2017, published 2024)
Ends that are not written are not given here.

Assays:
sHLA-E*01:03 = biological target: T1, sHLA-E*01:03 (Homo sapiens, UniProt P13747); test: Identification of peptides eluted from soluble HLA-E of CMV-infected vs uninfected U-373MG cells by immunoaffinity purification and LC-MS/MS; type: binding
T1 construct: A soluble construct of HLA-E*01:03 was constructed by removing the transmembrane and cytoplasmic domains; expressed in transfected cells; host or cells: human U-373MG cells, uninfected or infected with CMV strain AD169

CD94-NKG2C = biological target: T2, CD94-NKG2C (Homo sapiens, UniProt P13747+P26717+Q13241); conditions: peptide bound to HLA-E; cited from earlier work
T2 construct: a linker into which cDNA encoding the extracellular domain of type II membrane proteins is inserted; Flag (N); CD8 leader (N); made in house; host or cells: 293T cells for the Fc fusion proteins; mouse RMA-S transfectants for HLA-E and B2M

CD94-NKG2A = biological target: T3, CD94-NKG2A (Homo sapiens, UniProt P13747+P26715+Q13241); conditions: peptide bound to HLA-E; cited from earlier work
T3 construct: a linker into which cDNA encoding the extracellular domain of type II membrane proteins is inserted; Flag (N); CD8 leader (N); made in house; host or cells: 293T cells for the Fc fusion proteins; mouse RMA-S transfectants for HLA-E and B2M

[1] = number of spectra found for the HCMV peptide listed as HLA-E ligand (Table 1)
[2] = number of spectra for the peptide, LC-MS/MS identification of HLA-E ligands (Table 1)

T3 sequence (P61769 21-119): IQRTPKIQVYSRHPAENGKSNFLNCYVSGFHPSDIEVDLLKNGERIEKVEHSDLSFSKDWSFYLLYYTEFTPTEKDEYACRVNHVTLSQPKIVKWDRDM
T3 sequence (P26715 94-233): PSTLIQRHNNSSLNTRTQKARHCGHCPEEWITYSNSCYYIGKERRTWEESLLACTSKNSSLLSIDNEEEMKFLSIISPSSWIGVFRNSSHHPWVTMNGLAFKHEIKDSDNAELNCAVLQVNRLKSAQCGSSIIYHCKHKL
T3 sequence (P13747 22-358): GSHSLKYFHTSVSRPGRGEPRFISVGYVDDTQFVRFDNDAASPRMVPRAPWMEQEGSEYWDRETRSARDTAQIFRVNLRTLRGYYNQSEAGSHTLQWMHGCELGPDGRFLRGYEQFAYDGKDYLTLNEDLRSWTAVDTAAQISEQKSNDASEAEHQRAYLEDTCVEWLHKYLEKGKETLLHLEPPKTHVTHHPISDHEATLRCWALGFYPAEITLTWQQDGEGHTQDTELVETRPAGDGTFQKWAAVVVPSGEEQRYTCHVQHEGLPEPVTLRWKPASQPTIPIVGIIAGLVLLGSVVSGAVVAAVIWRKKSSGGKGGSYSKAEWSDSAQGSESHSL
T3 sequence (Q13241 32-179): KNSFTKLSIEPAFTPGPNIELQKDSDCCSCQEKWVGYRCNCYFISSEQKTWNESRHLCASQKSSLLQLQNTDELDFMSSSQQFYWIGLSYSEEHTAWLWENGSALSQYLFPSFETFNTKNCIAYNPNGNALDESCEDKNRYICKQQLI
T2 sequence (Q13241 32-179): as above
T2 sequence (P61769 21-119, further chain): as the sequence (P61769 21-119) above
T2 sequence (P13747 22-358): as the sequence (P13747 22-358) above
T2 sequence (P26717 94-231): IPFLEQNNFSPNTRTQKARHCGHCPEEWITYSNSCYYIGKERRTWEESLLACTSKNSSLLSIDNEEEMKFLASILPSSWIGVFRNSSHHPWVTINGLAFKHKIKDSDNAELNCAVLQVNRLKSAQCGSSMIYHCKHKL

| Sequence | # Spec (sHLA-E*01:03; [1]) | also measured |
| --- | --- | --- |
| APSQKSKRSVTVEQPSTSADGSN (7) | 21 | – |
| AQGDDDVWTSGSDSDEELVTTER (85) | 393 | – |
| ARERGEFGDEDEEQEND (22) | 351 | – |
| ARERGEFGDEDEEQENDGEPR (21) | 351 | – |
| DDDVWTSGSDSDEELVTTER (87) | 396 | – |
| EAGGVGGSSGGGGGSGLLPAKRS (55) | 1211 | – |
| GPGLDNDLMNEPMGLGGLGGGGGGGGKKH (43) | 312 | – |
| HRHLPVAD (82) | 139 | – |
| MDGDVRTAADISSTER (63) (MDGDVRTAADISSTLR) | 519 | – |
| PATLTAYDK (57) | 572 | – |
| PNTYIHKTETD (60) | 221 | – |
| PTYDELPSRPPQ (4) | 730 | – |
| PVTGEDTFSAHGKSD (52) | 615 | – |
| RSVTVEQPSTSAD (9) | 28 | – |
| SASSATACTSGVMT | – | # Spec (sHLA-E*01:03; [2]): 439 |
| SASSATACTSGVMTR | – | # Spec (sHLA-E*01:03; [2]): 439 |

| Sequence | # Spec (sHLA-E*01:03; [1]) | also measured |
| --- | --- | --- |
| SDEELVTTER | – | # Spec (sHLA-E*01:03; [2]): 406 |
| SQKSKRSVTVEQPSTSAD (8) | 23 | – |
| SSVSGVRTPR (17) (also: PTM present) | 2 | – |
| SVPAPRPSPISTAST (72) | $35 | – |
| SVTVEQPSTSA (12) | 29 | – |
| VLGPISGHV (78) | 14 | – |
| VLGPISGHVLK (79) | 14 | – |
| VMAPRTLFL [HLA-G leader peptide] | – | binding of HLA-E/peptide to CD94-NKG2C (CD94-NKG2C): bind both CD94-NKG2A and CD94-NKG2C (albeit with low affinity); binding of HLA-E/peptide to CD94-NKG2A (CD94-NKG2A): bind both CD94-NKG2A and CD94-NKG2C (albeit with low affinity) |
| VRTAADISSTLR (67) | 2 | – |
| VRTAADISSTLRSVPAPRPSP (66) | 3 | – |
| VRTAADISSTLRSVPAPRPSPISTA (68) | 3 | – |
| VTFEFVPNTK (46) | 419 | – |
| VTGGGAMAGASTSAGR | – | # Spec (sHLA-E*01:03; [2]): 420 |
| VTVEQPSTSAD (13) | 30 | – |
| VWTSGSDSDEELVTTE (91) | 399 | – |
